Measurements reported in patent publication US20220280611A1, “SOLID COMPOSITION COMPRISING A PYY COMPOUND AND A SALT OF N-(8-(2- HYDROXYBENZOYL)AMINO)CAPRYLIC ACID” (Novo Nordisk A/S, priority 2019, published 2022).
Starred links: 1 amine or outer side, 2 acyl side, 3 side chain; linkers in the order of their positions; H or OH if unused. Non-standard residues stand in square brackets, D forms with d. Groups on a side chain read outwards from the residue. No end group written: not given here. *: point of attachment. Decanoyl(10-(4-HOOC-PhO)) = O=C(O)c1ccc(OCCCCCCCCCC(=O)*)cc1; γGlu = O=C(O)[C@H](CCC(=O)[*:2])N[*:1]; AEEA = NCCOCCOCC(=O)O; Aib = CC(C)(N)C(=O)O

Experiments:
[1] = in words; PCT/EP2019/052487; cited from earlier work
[2] = Assay IV: Pharmacokinetic studies in Beagle dogs (oral exposure); type: in vivo; details: peroral
Description: Pharmacokinetic (PK) studies in Beagle dogs are conducted to determine the exposure of the PYY compound after peroral administration of different dosage forms.
For the pharmacokinetic studies male Beagle dogs are used, 1 to 5 years of age and weighing approximately 10-12 kg at the start of the studies. The dogs are group housed in pens (12 hours light: 12 hours dark), and fed individually and restrictedly once daily with Royal Canin Medium Adult dog (Royal Canin Products, China Branch, or Brogaarden A/S, Denmark). Exercise and group social are permitted daily, whenever possible. The dogs are used for repeated pharmacokinetic studies with a suitable wash-out period between successive dosings. An appropriate acclimatisation period is given prior to initiation of the first pharmacokinetic study. All handling, dosing and blood sampling of the animals are performed by trained and skilled staff. Before the studies the dogs are fasted overnight and from 0 to 4 h after dosing. Besides, the dogs are restricted to water 1 hour before dosing until 4 hours after dosing, but otherwise have ad libitum access to water during the whole period.
The tablets comprising the PYY compound are administered in the following manner: 10 min prior to tablet administration the dogs are dosed subcutaneously with approximately 3 nmol/kg of SEQ ID NO: 34). The PYY tablets are placed in the back of the mouth of the dog to prevent chewing. The mouth is then closed and tap water is given by a syringe or gavage to facilitate swallowing of the tablet.
Blood is sampled at predefined time points for up till 10 hr post dosing to adequately cover the full plasma concentration-time absorption profile of the PYY compound.
For each blood sampling time point approximately 0.8 mL of whole blood is collected in a 1.5 mL EDTA coated tube, and the tube is gently turned to allowing mixing of the sample with the EDTA. Blood samples (for example 0.8 mL) are collected in EDTA buffer (8 mM) and then centrifuged at 4° C. and 2000 G for 10 minutes. Plasma is pipetted into Micronic tubes on dry ice and kept at −20° C. until analysis. […]
PYY compound was assayed in dog plasma by plasma protein precipitation and turboflow liquid chromatography tandem mass spectrometry (TF-LC-MS/MS). […] The mixture was analysed by TF-LC-MS/MS using a Cyclone turboflow column (0.5×50 mm, ThermoFisher Scientific) and an Aeris Peptide 3.6 um XB-C18 analytical column (50×2.1 mm, Phenomenex) or a Poroshell SB-C18 2.7 um analytical column (50×2.1 mm, Agilent). […] The deviation between nominal and calculated concentration in the calibrators and quality control samples was below 20%. […]

[3] = Test 4 tablet, SNAC amount 100 mg
[4] = Test 3 tablet, SNAC amount 300 mg

Substance: N-epsilon27-[2-[2-[2-[[2-[2-[2-[[(4S)-4-carboxy-4-[10-(4-carboxyphenoxy)decanoylamino]butanoyl]amino]ethoxy]ethoxy]acetyl]amino]ethoxy]ethoxy]-acetyl], N-epsilon36-[2-[2-[2-[[2-[2-[2-[[(4S)-4-carboxy-4-[10-(4-carboxyphenoxy)decanoylamino]-butanoyl]amino]ethoxy]ethoxy]acetyl]amino]ethoxy]ethoxy]acetyl]-[Aib8,Glu22,Arg26,Lys27, Glu30,Arg34,Lys36]-GLP-1-(7-37)-peptidyl-Glu-Gly (H[Aib]EGTFTSDVSSYLEEQAARK([AEEA-AEEA-γGlu-Decanoyl(10-(4-HOOC-PhO))])FIEWLVRGK([AEEA-AEEA-γGlu-Decanoyl(10-(4-HOOC-PhO))])GEG) [GLP-1 agonist A]
- Oral availability when formulated in a SNAC formulation [1]: orally available

Substance: N{alpha-4}-(3-Methylbutanoyl)-N{Epsilon-7}-6-[[(4S)-4-carboxy-4-(17-carboxy-heptadecanoylamino)butanoyl]amino]hexanoyl-[Arg4,Lys7,Gln18,Ile22,Tyr28, Trp30,Leu31]hPYY(4-36) [Compound 32]
- Dose corrected AUC 0-30 min [2, 3]: 5.05 arbitrary unit
- Dose corrected exposure t = 30 min [2, 3]: 0.268 kg/L

Substance: N-epsilon26-[2-(2-{2-[2-(2-{2-[(S)-4-carboxy-4-(17-carboxyheptadecanoylamino) butyrylamino]ethoxy}ethoxy)acetylamino]ethoxy}ethoxy)acetyl][Aib8,Arg34]GLP-1(7-37) [Semaglutide]
- Oral availability when formulated in a SNAC formulation [1]: orally available

Substance: N{alpha-4}-(3-Methylbutanoyl)-N{Epsilon-7}-6-[[(4S)-4-carboxy-4-(17-carboxy-heptadecanoylamino)butanoyl]amino]hexanoyl-[Arg4,Lys7,Pro9,Gln18,Tyr28,Trp30,Leu31]hPYY(4-36) [Compound 4]
- Dose corrected AUC 0-30 min [2, 4]: 2.24 arbitrary unit
- Dose corrected exposure t = 30 min [2, 4]: 0.138 kg/L
